Assay [1] addresses T1, UDG enzyme of B. subtilis (Bacillus subtilis, UniProt P39615 1-225).
T1 construct: Endogenous enzyme of the B. subtilis 110NA extract, identified by peptide mass fingerprinting (MASCOT); also called UDG of B. subtilis; protein D
T1 sequence: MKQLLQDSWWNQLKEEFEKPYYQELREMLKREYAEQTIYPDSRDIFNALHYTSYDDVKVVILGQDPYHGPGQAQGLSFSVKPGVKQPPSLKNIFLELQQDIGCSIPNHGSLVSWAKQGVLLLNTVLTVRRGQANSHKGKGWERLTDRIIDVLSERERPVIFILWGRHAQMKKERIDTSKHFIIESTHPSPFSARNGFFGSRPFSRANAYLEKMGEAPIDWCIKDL
Nature of the assay: affinity chromatography of B. subtilis 110NA[pPR53.p56FLAG] lysate on anti-FLAG M2 column, elution with FLAG peptide, SDS gel, peptide mass fingerprinting.
Protocol: In order to analyse whether the UDG enzyme is a cellular target of protein p56, affinity chromatography assays were performed. […] The culture was concentrated 10-fold in TBS buffer (50 mM Tris-HCl, pH 7.5, 150 mM NaCl) and was lysed using the French press (20,000 psi). The lysate was centrifuged at 7,000 rpm and 4° C. in the Sorvall-SS.34 rotor for 10 minutes. The supernatant was loaded in an anti-FLAG M2 column (Sigma). The proteins bound to the column were eluted with the TBS buffer containing the FLAG peptide (500 μg/ml) (Sigma). […] The gel was stained with SyproRuby (Molecular Probes). As a negative control, an extract from the 110NA[pPR53] strain was used.

Assay [2] concerns the target T2, UDG enzyme of E. coli (E. coli, UniProt P12295 2-229).
T2 construct: Commercial enzyme; also called UDG of E. coli (New England Biolabs)
T2 sequence: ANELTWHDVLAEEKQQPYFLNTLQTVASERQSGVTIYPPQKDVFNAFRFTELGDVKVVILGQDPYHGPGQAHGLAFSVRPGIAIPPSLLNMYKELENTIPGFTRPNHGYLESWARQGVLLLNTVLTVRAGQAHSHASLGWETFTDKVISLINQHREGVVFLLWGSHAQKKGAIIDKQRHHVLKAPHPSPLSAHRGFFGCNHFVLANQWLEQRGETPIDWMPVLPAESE
Nature of the assay: native polyacrylamide gel (16%) of p56 (2 µg) incubated with E. coli UDG (0.2 µg); Western blot and peptide mass fingerprinting of the band. A general note: In western blotting, separated proteins are transferred to a membrane and probed.

These results are taken from patent US20100120675A1 (CONSEJO SUPERIOR DE INVESTIGACIONES CIENTIFICAS, published 2010).

B1: protein p56FLAG (other)
chain: MVQNDFVDSYDVTMLLQDDDGKQYYEYHKGLSLSDFEVLYGNTADEIIKLRLDKVLDYKDDDDK
notes: Produced constitutively in B. subtilis 110NA[pPR53.p56FLAG]; Captured from the cell lysate on an anti-FLAG M2 column
Consider B1, for which, in assay [1], the binding result was “binds”.

B2: protein p56 of the phi29 (φ29) bacteriophage (other)
chain: MVQNDFVDSYDVTMLLQDDDGKQYYEYHKGLSLSDFEVLYGNTADEIIKLRLDKVL
notes: Untagged, purified as in section 1.4; also called protein of the invention
B2: the binding result in assay [2] is “binds”.
